The values below come from patent publication US20250109177A1, “EVOLVED PROTEIN DEGRONS” (The Broad Institute, Inc., priority 2022, published 2025).

For test [1], the system named is CRBN C-terminal domain (CTD). The test can be described thus: CRBN-CTD MG-PACE circuit transcriptional activation (luminescence). In kind it is cell-based, human. As to conditions: at 50 μM PT-179.
The test system of another test is degron-tagged eGFP. Briefly: Flow-based degradation assay, Degron-eGFP-IRES-mCherry in HEK293T cells. In kind it is cell-based, human. Particulars: HEK293T, overnight PT-179 treatment. How it is done: A flow-based degradation assay was then performed using a stably transduced Degron-eGFP-IRES-mCherry construct in HEK 293T cells to determine the ability of the evolved degrons to […] (see FIG. 7). Concentration of PT-179 is shown on the x-axis. Degrons indicated in the key were fused to the N-terminus of eGFP allowing measurement of eGFP:mCherry ratios for assessing degradation.
To characterize the evolved degrons, stable HEK293T cell lines expressing degron-tagged eGFP were generated (FIG. 19A). […] The final variant, SD36, potently degraded GFP in response to PT-179 (DC50=14 nM).

degron-tagged eGFP, sequence (Q96SW2 24-442 limits assumed): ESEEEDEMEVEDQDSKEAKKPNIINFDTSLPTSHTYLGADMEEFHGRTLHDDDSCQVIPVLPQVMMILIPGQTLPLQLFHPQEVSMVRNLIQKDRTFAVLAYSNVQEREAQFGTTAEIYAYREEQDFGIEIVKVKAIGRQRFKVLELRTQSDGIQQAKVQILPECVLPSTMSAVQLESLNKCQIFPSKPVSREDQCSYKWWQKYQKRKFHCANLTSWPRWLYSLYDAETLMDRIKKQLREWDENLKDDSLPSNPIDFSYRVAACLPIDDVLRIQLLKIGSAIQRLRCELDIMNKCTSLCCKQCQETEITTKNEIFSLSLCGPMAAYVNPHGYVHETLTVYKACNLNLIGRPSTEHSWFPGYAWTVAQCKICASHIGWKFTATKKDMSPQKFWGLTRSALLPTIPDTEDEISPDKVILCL

B1: SD20: Evolved degron SEQ ID NO: 21: S10R E14D P16L E20K Q28E E42V P44T F45V R57K D58R A59C L60F *61VI (protein)
chain: FNVLMVHKRRHTGDRLLQCKICGFTCREKGNLLRHIKLHTGVKTVKCHLCNYACQRKRCFVI
In the case of B1, in test [1], the “luciferase expression, activation” value is on record as 24 fold. The “GFP degradation in response to PT-179” value with degron-tagged eGFP is recorded as “did not trigger GFP degradation”.
